Experimental data published in the DeepSol protein solubility set.

experiment: soluble on expression in E. coli; label from the status in PepcDB or PDB records

Sequence	soluble on expression in E. coli
MKLMDVRVSGLNVWITDKHILKGISFKAQPGTVTAIMGPSGSGKSTLIRVINRLIDLIPGARVEGEVWINNMNVMKEDPYNIRRYTGMVFQEPNPFPHMTIYENVAIGPKLHGLAKNKKELDEIVEWALKMAHLWDEVKDRLSDYPHQLSGGQRQRLSLARALALKPRVLLLDEPTANIDPVSTVKIEQSIVEYAKEEMATVIIVTHTPQQAARISDQILFLYEGRVIEYGPTKELVLRPRHELTKKFLGGEV	soluble
MATPTEKQILTLAQWFSPAYPVGAFAYSHGLEWSVEAGDVVDARTAQAWITDVLQHGAGWNDCLFIGSAYRAASLQELKNINDTALAFSASSERMMETRLQGEAFCGITASVWPVDLAGLCYPVAVGRAANLVGLPLTLSGQFYLHAFMANLVTAATRLVPLGQTEGQQIIRDLTPLCQAIADTALCANLSHLTSTAFLGDIAAMKHETQYSRMFRTLEHHHHHH	not soluble
MSLTETQSLELAKELISRPSVTPDDRDCQKLMAERLHKIGFAAEEMHFGNTKNIWLRRGTKAPVVCFAGHTDVVPTGPVEKWDSPPFEPAERDGRLYGRGAADMKTSIACFVTACERFVAKHPNHQGSIALLITSDEEGDALDGTTKVVDVLKARDELIDYCIVGEPTAVDKLGDMIKNGRRGSLSGNLTVKGKQGHIAYPHLAINPVHTFAPALLELTQEVWDEGNEYFPPTSFQISNINGGTGATNVIPGELNVKFNFRFSTESTEAGLKQRVHAILDKHGVQYDLQWSCSGQPFLTQAGKLTDVARAAIAETCGIEAELSTTGGTSDGRFIKAMAQELIELGPSNATIHQINENVRLNDIPKLSAVYEGILVRLLAGNAVEGGSHHHHHH	soluble
GHMSGFKHVSHVGWDPQNGFDVNNLDPDLRSLFSRAGISEAQLTDAETSKLIYDFIEDQGGLEAVRQEMRRQ	soluble
MGSDKIHHHHHHMDYYAGIDVSLELSSVCIVNQDGKIFREVKVASDPEALIGLFGGLGVALSRIGLEAGPLSQWLHAGLTAGGYDVVLLETRHVKAGLSAMTVKTDRKDARGIAHLLRMGWFRPVHCKTNSAQEIRVLLVGRKLLQSKMGDLEQGIRGLLRGFGLKVGVISKGRFAARIRELVAGQAMLETVAEPMLRARDALRAEFTLLHRQILAIVRKDDLCRRLMTVPGVGPLVALTFKSGIDDPSRFTSSKTVGAHFGLTPKKYQSGETDITGGITRTGDAMVRMALYEAAQVLLTRSQRFSSLKRWALEVAKRRGMKRAKVALARKLATVLHRMWIDGSDFRWGKEITSA	not soluble
MGSDKIHHHHHHMNLQYVLLNDNSWQSQGEWQTPDTPFMSFAFWQALSDTGAIGEEAGWLPIYILVHRVESDDDFTVQQSLSSVEASIKVKQPVAVLPVFIKGHHRGEFVFDHSWAQAYAQYGLDYYPRLVTSAPYTPITGQRLWLAEGETLDAEIINTAIKGVDDIAQQVDASGWHGLFVTPEMATIATTLMPFNSHTRSAGQSHGVDSASNTSMNIASNTPVLERQGCQFLWQNKNLSQNDQLFADFEEFLATLKAKKRKTIRAERRKVAEQGITCQRKCGDEIIESDWKTFYHCYVMTYAVRGQQPYLSIDFFEALAQNMAEHVMLAQALDAGGEIIASSLFLYDKPDNKMATLYGRYWGALGEYDSLHFELCYYQGIEFAIEQGLHYFDPGTQGEHKLIRGFIPTTTHSLHRIYDARFVPAIADFCHKDRLHMAQYREQAFEALPFNIDNMPTFDNNE	not soluble
MGSDKIHHHHHHMQVLGLCRFSYLGLGGFKVMHETLEERRAYLYAPARMEDRFRQFEAVTLPSVTGQTDPDFEFLVVIGECFPDSYRARLEDLVRGVPQVRIRAYPPLRHRTAMAQALDDHRRDMDAPCLQFRLDDDDGMARDFVARYREVAADTEALWRKHPAVAVDFNTGYVFRCGKRGIEISPFQFAYSAIALGVIVAPGHREGIMHFGHHKLWTVMPTITVPGEDMMLRGHNEFNDSRAKPGAKQFSYQPLDADEEAYFKARFNVDNARVREIFSAPMP	not soluble
MLEFETNIDGLASIKVIGVGGGGNNAVNRMIENEVQGVEYIAVNTDAQALNLSKAEVKMQIGAKLTRGLGAGANPEVGKKAAEESKEQIEEALKGADMVFVTAGMGGGTGTGAAPVIAQIAKDLGALTVGVVTRPFTFEGRKRQLQAAGGISAMKEAVDTLIVIPNDRILEIVDKNTPMLEAFREADNVLRQGVQGISDLIATPGLINLDFADVKTIMSNKGSALMGIGIATGENRAAEAAKKAISSPLLEAAIDGAQGVLMNITGGTNLSLYEVQEAADIVASASDQDVNMIFGSVINENLKDEIVVTVIATGFIEQEKDVTKPQRPSLNQSIKTHNQSVPKRDAKREEPQQQNTVSRHTSQPADDTLDIPTFLRNRNKRG	soluble
MSLTLPSEKPATDVAAQCFLNALIRETTDWKLTEYPPDELIIPLDEQKSLHFRVAYFSPTQHHRFAFPARLVTASGSYPVDFTTLSRLIIDKLRHQLFLPVPLCETFHQRVLESHAHTQQAIDARHDWTALREKALNFGEAEQALLTGHAFHPAPKSHEPFNRREAERYLPDMAPHFPLRWFSVDKTQIAGESLHLNLQQRLTRFAAENAPQLLNELSDNQWLFPLHPWQGEYLLQQGWCQALVAKGLIKDLGEAGTSWLPTTSSRSLYCATSRDMIKFSLSVRLTNSIRTLSVKEVKRGMRLARLAQTDGWQMLQVRFPTFRVMQEDGWAGLLDLNGNIMQESLFALRENLLVDQPKSQTNVLVSLTQAAPDGGDSLLVSAVKRLSDRLGITVQQAAHAWVDAYCQQVLKPLFTAEADYGLVLLAHQQNILVQMLGDLPVGFIYRDCQGSAFMPHATDWLDSIGEAQAENIFTHEQLLRYFPYYLLVNSTFAVTAALGAAGLDSESNLMARVRASLAEVRDQVTHKTCLNYVLESPYWNVKGNFFCYLNDHNENTIVDPSVIYFDFANPLQAQEGHHHHHH	soluble
MSQPCPHCGFQFNCICSLVPKLTSKHEILLLMHPNELTRDTNTGQLLQHCQLNVEQAIWDRKQPPAELLTRLANPSLYPVILFPSEESITLEHVEMQSQQQAKMPLYIILDATWQEARKMINKSRWLEGIPTMGLSALADSQYQLRRNQQQGNLCTFEVAAHLLGQLGEQDNQQQMHTFFTHYLALFQAEKSGHALKSSPRSLEAAALEHHHHHH	not soluble
MGSDKIHHHHHHGKKKPPPPKSASKMGPPPPAPAPPTAPEAAPAAPTPDAAAAAPAEGEKKDGEKKSEKKDGDKKEEEKKDEEKKDGDKKEDDKKDEKKDEDKKDEKKDADEKKDEEKKDDKKDEKKDEKKDEKKDEKKEKSKKSKKSSKSKKSKKSKREKKDEEKKEDDKKEDDKKDDKKEDEKKDDDKKDDEKNYFW	not soluble
MNYLKTSGIVIKEVNTGEADRIITIFSKNKGKISALAKGARRPKSHLVAGTQLLCYSEFVLFKGKDMYTVNSCDVIESFYDIRNDLERLTYAAHMMDIVNDVILENQPASRLLQLFLNSLYMLSKTDRSPLQIVRVFEIRLLSTMGYAPWVSSCIKCGSTVFDSMYFSFLKCGFLCSKCLENDKGALKISEGAAKALNYIVHSKMSNLFSFEVSESVLDELGKVSQRYMKERLEKNYTKLDFIKTLDRIKC	soluble
MSLQENISVTDSYSTGNAAQAMLEKLLQIYDVKMLVAQLNGVGENHWSAAILKRALANDSAWHRLSEKEFAHLQTLLPKPPEHHPHYAFRFIDLFAGIGGIRRGFESIGGQCVFTSEWNKHAVRTYKANHYCDPATHHFNEDIRDITLSHQEGVSDEAAAEHIRQHIPEHDVLLAGFPCQPFSLAGVSKKNSLGRAHGFACDTQGTLFFDVVRIIDARRPAMFVLENVKNLKSHDKGKTFRIIMQTLDELGYDVADAEDNGPDDPKIIDGKHFLPQHRERIVLVGFRRDLNLKADFTLRDISECFPAQRVTLAQLLDPMVEAKYILTPVLWKYLYRYAKKHQARGNGFGYGMVYPNNPQSVTRTLSARYYKDGAEILIDRGWDMATGEKDFDDPLNQQHRPRRLTPRECARLMGFEAPGEAKFRIPVSDTQAYRQFGNSVVVPVFAAVAKLLEPKIKQAVALRQQEAQHGRRSREGHHHHHH	soluble
MRRVTEAAIPDNDGDEQPPVIPRYDPTSNFDAQRAQQQHPQSRPVYSTPAQMIRTTQPGGVKHNVILMKASDGTQKMVLKPGQFPPGTVISTGQRVVPYRQPTAVQQRQLYTATPGTRVVRIPNANGGAPRQQDHQVMRRVVQASGPRAMEYMDDQGTPPPGQQVRYVLQGGNSGTPNVNPPKVSSRGGPRGGLTMQMVQQQQQHNPVLDVMFSQVCRWDRQYGWSKTHVKRARQKNDSDKMHLRKFRMNQRELLITDHMERLKKEINKRRTRMENEAEQQCGLLTPWRKARARPHRAAKPKAEVKKEVINPADITLGGDTYDYVKEQKPTESIATNVSRRRRTSANLSKSEDDRDKPESQSTAPKSKERRTSEPPASHVAFHTPGSATPHDINLSIEHCTCQKIFDASKLYIQCELCARWYHGDCVGVAEQTILGLEHWSCEECIEEQERVKDQPALYCVCQKPYDDTKFYVGCDSCQGWFHPECVGTTRAEAEQAADYNCPACTREAEGYESEASDVSGSSRVSVQLTRADYTHVFELLELLLEHRMSTPFRNPVDLNEFPDYEKFIKKPMDLSTITKKVERTEYLYLSQFVNDVNQMFENAKTYNPKGNAVFKCAETMQEVFDKKLIDVREQMTARQQMLLLATAQQQDPMSSIRKRVQSESQRTVDSLDIDSDQLLPLDANLMRLYDF	not soluble
MTRDLAPALQALSPLLGSWAGRGAGKYPTIRPFEYLEEVVFAHVGKPFLTYTQQTRAVADGKPLHSETGYLRVCRPGCVELVLAHPSGITEIEVGTYSVTGDVIELELSTRADGSIGLAPTAKEVTALDRSYRIDGDELSYSLQMRAVGQPLQDHLAAVLHRQRRSHHHHHH	soluble
MAHHHHHHMRLLTHNFLACLKCDTYPLLVTAAEMEEIPVEYDAEFTRRMLARVDYASLRTTFHALREAHESVRGPSHDEGADTAEGALASSELPETMEGADFSDHSAFLRTAHYAMNVVAVRNGTLECPACKTTFSINDFIPNFVPEAK	soluble
MGSDKIHHHHHHMSLLSDEEVNSLSIQRMIFHVVDPALENPTFLAEVNPPQCVDFFVERVKETLKGSAYEFVPGAGIPNLLHRALPGPDGKDDFITVSHALAERFKDKVKQDKRLAPGVLMLFALKTNGNNQLVAVIKYEHQQVVSYSYVKDTNGSPVLDADGNPVPDLKTLVETFTKDRKAMQKSAVIRFQNINSSGGGTFSSSAVVIDHSSGRYRDATQHFANFLDIRRALKPSELTKRLEDAAVEAIKAHRSEVPTEIAKAPKRHVRTAMSRLDGFDFEKPEEFLGAVLQGVSPDSKILKTFKSKLASKNISTEAFKFEGATPPPAEYRRVVTNEGVTLLFSAGHEEKKNVEIQDEENGGVKITIRTTGLERNDELEKMPRLPD	not soluble
MGSDKIHHHHHHMKIIILGAGQVGGTLAENLVGENNDITIVDSDKNKLRSLQDKYDLRVVVGHGAHPDVLREAGAEDADMLIAVTNSDECNMSACQIAYTLFGTPTKIARIRSEQYLHMQERLFIDSETKNSDNRTRGGFVIDELIAPEQLVTSYIQRLVEYPGALQVLEFAEGKLSLVAVRAYYGGPLVGNALAALREHMPNIDTRVAAIFRQGRPIMPRGTTIIEADDEVFFVADSRHIRAVMSEMQKLDNSYRNIMIAGGGNIGLGLAKKLERNHSVKLIEHKAERAEALSEKLQNTTVFCGDASDQELLLEEHIDQTDVFIAVTNDDEANIMSALLAKRMGAKKVMVLIQREAYVDIVQEANIDIAISPQQATISALLTHIRQGDICNVYSLRRGAAEAIEAIAHGDPSTSKVVGKQIGEIRLPPGTTIGAIVRNDEVLMAHDKTVIEQGDHVILFLVNKKFIGEVERLFQPSAFFF	not soluble
MSKFSLKLGSKTLKKNISKKTKKKNSLQKANLFDWDDAETASLSHKPQSKIKIQSIDKFDLDEESSSKKKLVIKLSENADTKKNDAPLVEYVTEKEYNEVPVEEFGDALLRGMGWESDSEQDSKGDKTQSRNKDVSNVSQIHPDGLGIGAKLNKAINVEEASFMPVVKIDKITGTKVDDDKKNKS	soluble
